# Test results from the supplement of paper PMC10567573.
# B1: CCDC89 (parent)
# chain: LNAELEEKMMQEAEKLKAQGEYSR
# Variants of: B1
# Test: protein stability index of a GFP-peptide fusion (GPS, HEK-293T) (PSI 1-6); higher = more stable
# Conditions: c terminus: a fixed tail appended
# 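Also: lentivirally expressed fusions sorted by FACS into six bins by GFP to DsRed ratio, PSI derived from sequencing read proportions per bin multiplied by bin number.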
row,Variant,protein stability index
1,LNAFLEEKMMQEAEKLKAQGEYSR [E4F],4.47
2,LNALLEEKMMQEAEKLKAQGEYSR [E4L],4.56
3,LNAELEEKNMQEAEKLKAQGEYSR [M9N],5.1
4,LNAELEEKLMQEAEKLKAQGEYSR [M9L],3.96
5,LNAELEEKWMQEAEKLKAQGEYSR [M9W],5.04
6,LNAELEEKRMQEAEKLKAQGEYSR [M9R],5.12
7,LNAELEEKAMQEAEKLKAQGEYSR [M9A],5.2
8,LNAELEEKPMQEAEKLKAQGEYSR [M9P],5.53
9,LNAELEEKFMQEAEKLKAQGEYSR [M9F],4.97
10,LNAELEEKKMQEAEKLKAQGEYSR [M9K],3.98
11,LNAELEEKGMQEAEKLKAQGEYSR [M9G],5.05
12,LNAELEEKCMQEAEKLKAQGEYSR [M9C],5.52
13,LNAELEEKIMQEAEKLKAQGEYSR [M9I],5.12
14,LNAELEEKQMQEAEKLKAQGEYSR [M9Q],4.79
15,LNAELEEKDMQEAEKLKAQGEYSR [M9D],4.89
16,LNAELEEKHMQEAEKLKAQGEYSR [M9H],5.95
17,LNAELEEKTMQEAEKLKAQGEYSR [M9T],5.23
18,LNAELEEKMMMEAEKLKAQGEYSR [Q11M],4.18
19,LNAELEEKMMLEAEKLKAQGEYSR [Q11L],3.99
20,LNAELEEKMMIEAEKLKAQGEYSR [Q11I],4.96
21,LNAELEEKMMSEAEKLKAQGEYSR [Q11S],5.49
22,LNAELEEKMMTEAEKLKAQGEYSR [Q11T],5.67
23,LNAELEEKMMREAEKLKAQGEYSR [Q11R],4.76
24,LNAELEEKMMHEAEKLKAQGEYSR [Q11H],4.84

row,Variant,protein stability index
1,LNAELEEKMMYEAEKLKAQGEYSR [Q11Y],4.86
2,LNAELEEKMMNEAEKLKAQGEYSR [Q11N],5.04
3,LNAELEEKMMFEAEKLKAQGEYSR [Q11F],4.14
4,LNAELEEKMMVEAEKLKAQGEYSR [Q11V],5.09
5,LNAELEEKMMGEAEKLKAQGEYSR [Q11G],5.18
6,LNAELEEKMMPEAEKLKAQGEYSR [Q11P],4.75
7,LNAELEEKMMKEAEKLKAQGEYSR [Q11K],4.94
8,LNAELEEKMMDEAEKLKAQGEYSR [Q11D],5.7
9,LNAELEEKMMWEAEKLKAQGEYSR [Q11W],4.22
10,LNAELEEKMMEEAEKLKAQGEYSR [Q11E],5.55
11,LNAELEEKMMCEAEKLKAQGEYSR [Q11C],5.38
12,LNAEPEEKMMQEAEKLKAQGEYSR [L5P],5.58
13,LNAEREEKMMQEAEKLKAQGEYSR [L5R],4.7
14,LNAEEEEKMMQEAEKLKAQGEYSR [L5E],5.46
15,LNAEAEEKMMQEAEKLKAQGEYSR [L5A],4.86
16,LNAEKEEKMMQEAEKLKAQGEYSR [L5K],4.53
17,LNAEMEEKMMQEAEKLKAQGEYSR [L5M],5.21
18,LNAEHEEKMMQEAEKLKAQGEYSR [L5H],5.19
19,LNAEWEEKMMQEAEKLKAQGEYSR [L5W],4.71
20,LNAEYEEKMMQEAEKLKAQGEYSR [L5Y],4.33
21,LNAEDEEKMMQEAEKLKAQGEYSR [L5D],4.71
22,LNAEVEEKMMQEAEKLKAQGEYSR [L5V],5.09
23,LNAEIEEKMMQEAEKLKAQGEYSR [L5I],4.88
24,LNAEQEEKMMQEAEKLKAQGEYSR [L5Q],5.55

row,Variant,protein stability index
1,LNAEFEEKMMQEAEKLKAQGEYSR [L5F],4.73
2,LNAETEEKMMQEAEKLKAQGEYSR [L5T],5.47
3,LNAESEEKMMQEAEKLKAQGEYSR [L5S],5.38
4,LNAENEEKMMQEAEKLKAQGEYSR [L5N],5.44
5,LNAELKEKMMQEAEKLKAQGEYSR [E6K],4.64
6,LNAELIEKMMQEAEKLKAQGEYSR [E6I],4.08
7,LNAELVEKMMQEAEKLKAQGEYSR [E6V],3.04
8,LNAELHEKMMQEAEKLKAQGEYSR [E6H],4.79
9,LNAELMEKMMQEAEKLKAQGEYSR [E6M],4.42
10,LNAELNEKMMQEAEKLKAQGEYSR [E6N],4.71
11,LNAELWEKMMQEAEKLKAQGEYSR [E6W],3.56
12,LNAELREKMMQEAEKLKAQGEYSR [E6R],4.36
13,LNAELTEKMMQEAEKLKAQGEYSR [E6T],3.27
14,LNAELGEKMMQEAEKLKAQGEYSR [E6G],5.15
15,LNAELLEKMMQEAEKLKAQGEYSR [E6L],2.68
16,LNAELQEKMMQEAEKLKAQGEYSR [E6Q],4.65
17,LNAELSEKMMQEAEKLKAQGEYSR [E6S],4.96
18,LNAELFEKMMQEAEKLKAQGEYSR [E6F],3.39
19,LNAELCEKMMQEAEKLKAQGEYSR [E6C],4.69
20,LNAELPEKMMQEAEKLKAQGEYSR [E6P],4.8
21,LNAELEEKMAQEAEKLKAQGEYSR [M10A],5.55
22,LNAELEEKMYQEAEKLKAQGEYSR [M10Y],5.15
23,LNAELEEKMEQEAEKLKAQGEYSR [M10E],5.39
24,LNAELEEKMDQEAEKLKAQGEYSR [M10D],5.08

row,Variant,protein stability index
1,LNAELEEKMNQEAEKLKAQGEYSR [M10N],5.34
2,LNAELEEKMTQEAEKLKAQGEYSR [M10T],5.42
3,LNAELEEKMHQEAEKLKAQGEYSR [M10H],5.11
4,LNAELEEKMSQEAEKLKAQGEYSR [M10S],5.65
5,LNAELEEKMWQEAEKLKAQGEYSR [M10W],4.7
6,LNAELEEKMLQEAEKLKAQGEYSR [M10L],5.46
7,LNAELEEKMKQEAEKLKAQGEYSR [M10K],5.08
8,LNAELEEKMRQEAEKLKAQGEYSR [M10R],5.25
9,LNAELEEKMVQEAEKLKAQGEYSR [M10V],5.13
10,LNAELEEKMMQTAEKLKAQGEYSR [E12T],4.4
11,LNAELEEKMMQIAEKLKAQGEYSR [E12I],3.28
12,LNAELEEKMMQPAEKLKAQGEYSR [E12P],5.4
13,LNAELEEKMMQCAEKLKAQGEYSR [E12C],4.38
14,LNAELEEKMMQFAEKLKAQGEYSR [E12F],3.56
15,LNAELEEKMMQKAEKLKAQGEYSR [E12K],4.67
16,LNAELEEKMMQNAEKLKAQGEYSR [E12N],4.75
17,LNAELEEKMMQRAEKLKAQGEYSR [E12R],4.26
18,LNAELEEKMMQLAEKLKAQGEYSR [E12L],2.92
19,LNAELEEKMMQAAEKLKAQGEYSR [E12A],4.42
20,LNAELEEKMMQYAEKLKAQGEYSR [E12Y],3.47
21,LNAELEEKMMQWAEKLKAQGEYSR [E12W],4.42
22,LNAELEEKMMQVAEKLKAQGEYSR [E12V],4.12
